Where a chain is given by its changes, count along the chain named. Names may count otherwise.
B1: CcmK1 from Synechocystis sp. PCC6803, TEV-proteolysis product of K1^-TH (K1^-) (natural protein, UniProt P72760 1-111, looked up)
chain: MSIAVGMIETLGFPAVVEAADSMVKAARVTLVGYEKIGSGRVTVIVRGDVSEVQASVTAGIENIRRVNGGEVLSNHIIARPHENLEYVLPIRYTEAVEQFREIVNPSIIRR
notes: CcmK1, Synechocystis sp; PCC6803, full-length gene, codon-optimized for E. coli; Measured mass indicated loss of the first Met residue; also called untagged K1^- 6803; Syn6803 K1^-; source: E. coli BL21 (DE3), purified (TALON cobalt IMAC), tag removed with turbo TEV protease; not shown: His4, C-terminal, cleaved
B2: CcmK2 from Synechococcus elongatus PCC 7942 with C-terminal His6 tag (K2^-H Syn7942) (natural protein, Synechococcus elongatus PCC7942, UniProt Q03511 1-102, looked up)
chain: MPIAVGMIETLGFPAVVEAADAMVKAARVTLVGYEKIGSGRVTVIVRGDVSEVQASVSAGLDSAKRVAGGEVLSHHIIARPHENLEYVLPIRYTEAVEQFRM
notes: also called K2^-H 7942; Syn7942 K2^-H; source: E. coli BL21 (DE3), purified (TALON cobalt IMAC); not shown: His6, C-terminal, kept
B3: CcmK4 from Synechocystis sp. PCC6803, TEV-proteolysis product of K4^-TH (K4^-) (natural protein, UniProt P73407 1-112, looked up)
chain: MSAQSAVGSIETIGFPGILAAADAMVKAGRITIVGYIRAGSARFTLNIRGDVQEVKTAMAAGIDAINRTEGADVKTWVIIPRPHENVVAVLPIDFSPEVEPFREAAEGLNRR
notes: CcmK4, Synechocystis sp; PCC6803, full-length gene, codon-optimized for E. coli; Sample partly degraded by proteolysis (species of similar but not identical mass in native MS); Measured mass indicated loss of the first Met residue; also called Syn6803 K4^-; source: E. coli BL21 (DE3), purified (TALON cobalt IMAC), tag removed with turbo TEV protease; not shown: His4, C-terminal, cleaved
B4: CcmK4 from Synechocystis sp. PCC6803, TEV-proteolysis product of ^HT-K4 (^-K4) (natural protein, UniProt P73407 1-112, looked up)
chain: B3 chain
notes: CcmK4, Synechocystis sp; PCC6803, full-length gene, codon-optimized for E. coli; also called Syn6803 -K4; source: E. coli BL21 (DE3), purified (TALON cobalt IMAC), tag removed with turbo TEV protease; not shown: His4, N-terminal, cleaved
B5: CcmK1 from Synechocystis sp. PCC6803 with C-terminal TEV site and His4 tag (K1^-TH) (natural protein, UniProt P72760 1-111, looked up)
chain: B1 chain
notes: CcmK1, Synechocystis sp; PCC6803, full-length gene, codon-optimized for E. coli; A TEV protease recognition site stands between protein and His4 tag; also called K1^-TH 6803; CcmK1 Syn6803; source: E. coli BL21 (DE3), purified (TALON cobalt IMAC); not shown: His4, C-terminal, kept
B6: CcmK4 from Synechocystis sp. PCC6803 with N-terminal His4 tag and TEV site (^HT-K4) (natural protein, UniProt P73407 1-112, looked up)
chain: B3 chain
notes: CcmK4, Synechocystis sp; PCC6803, full-length gene, codon-optimized for E. coli; A TEV site stands between tag and protein; source: E. coli BL21 (DE3), purified (TALON cobalt IMAC); not shown: His4, N-terminal, kept
B7: CcmK4 from Synechocystis sp. PCC6803 with C-terminal TEV site and His4 tag (K4^-TH) (natural protein, UniProt P73407 1-112, looked up)
chain: B3 chain
notes: CcmK4, Synechocystis sp; PCC6803, full-length gene, codon-optimized for E. coli; source: E. coli BL21 (DE3), purified (TALON cobalt IMAC); not shown: His4, C-terminal, kept
B8: D49A mutant of K1^-TH (CcmK1 Syn6803) (natural protein, Synechocystis sp. PCC6803, UniProt P72760 1-111, looked up)
chain: B1 chain with D49A
notes: CcmK1, Synechocystis sp; PCC6803, as K1^-TH with D49A; TEV site between protein and tag as in K1^-TH; source: E. coli BL21 (DE3), purified (TALON cobalt IMAC); not shown: His4, C-terminal, kept
B9: AAN K1^-TH: triple mutant of CcmK1 Syn6803 with N63 I64 R65 replaced by AAN of CcmK2 (natural protein, Synechocystis sp. PCC6803, UniProt P72760 1-111, looked up)
chain: B1 chain with N63A, I64A, R65N
notes: CcmK1, Synechocystis sp; PCC6803, as K1^-TH with residues 63-65 NIR replaced by AAN; TEV site between protein and tag as in K1^-TH; also called A^63AN K1^-TH 6803; source: E. coli BL21 (DE3), purified (TALON cobalt IMAC); not shown: His4, C-terminal, kept
B10: R28A/R80A double mutant of K1^-TH (CcmK1 Syn6803) (natural protein, Synechocystis sp. PCC6803, UniProt P72760 1-111, looked up)
chain: B1 chain with R28A, R80A
notes: CcmK1, Synechocystis sp; PCC6803, as K1^-TH with R28A and R80A; TEV site between protein and tag as in K1^-TH; source: E. coli BL21 (DE3), purified (TALON cobalt IMAC); not shown: His4, C-terminal, kept
B11: R28A mutant of K1^-TH (CcmK1 Syn6803) (natural protein, Synechocystis sp. PCC6803, UniProt P72760 1-111, looked up)
chain: B1 chain with R28A
notes: CcmK1, Synechocystis sp; PCC6803, as K1^-TH with R28A; TEV site between protein and tag as in K1^-TH; source: E. coli BL21 (DE3), purified (TALON cobalt IMAC); not shown: His4, C-terminal, kept
B12: R80A mutant of K1^-TH (CcmK1 Syn6803) (natural protein, Synechocystis sp. PCC6803, UniProt P72760 1-111, looked up)
chain: B1 chain with R80A
notes: CcmK1, Synechocystis sp; PCC6803, as K1^-TH with R80A; TEV site between protein and tag as in K1^-TH; source: E. coli BL21 (DE3), purified (TALON cobalt IMAC); not shown: His4, C-terminal, kept
B13: NIR K2^-TH: triple mutant of CcmK2 Syn6803 with A63 A64 N65 replaced by NIR of CcmK1 (natural protein, Synechocystis sp. PCC6803, UniProt P72761 1-103, looked up)
chain: MSIAVGMIETRGFPAVVEAADSMVKAARVTLVGYEKIGSGRVTVIVRGDVSEVQASVSAGIENIRRVNGGEVLSTHIIARPHENLEYVLPIRYTEEVEQFRTY
notes: CcmK2, Synechocystis sp; PCC6803, as K2^-TH with residues 63-65 AAN replaced by NIR; TEV site between protein and tag as in K2^-TH; also called N^63IR K2^-TH 6803; source: E. coli BL21 (DE3), purified (TALON cobalt IMAC); not shown: His4, C-terminal, kept

Molecular target: the molecule itself
Test: native MS; nano-ESI Q-ToF, positive ion mode, 150 mM ammonium acetate pH 8, soft ionization; tandem MS/MS (CID) of hexamer ions gives monomers and pentamers; oligomer of the protein with itself

| Protein | stoichiometry N |
| --- | --- |
| B1 | 6 |
| B2 | 6 |
| B3 | 6 |
| B4 | 6 |

Molecular target: the molecule itself
Test: SEC; Beckman Ultraspherogel SEC2000 column, 20 mM Tris-HCl, 300 mM NaCl, pH 7; size by comparison with calibration standards; oligomer of the protein with itself

| Protein | stoichiometry N |
| --- | --- |
| B5 | 6 |
| B6 | 6 |
| B7 | 6 |

Molecular target: the molecule itself
Test: AFM imaging; purified protein adsorbed on freshly cleaved mica, imaged in buffer in contact mode at ambient temperature; 10 mM NaPi, MES or Tris, 300 mM NaCl, pH 5.0 to 8.0, some with 0.5 mM additives; hexamers tiling into 2D assemblies

| Protein | binding result |
| --- | --- |
| B8 | binds |
| B9 | binds |
| B10 | binds |
| B11 | binds |
| B12 | binds |
| B13 | binds |
